Data on 1 molecule can be found in patent publication US20260265393A1 (SHANGHAI CELGEN BIO PHARMACEUTICAL, published 2026).

The target in experiment [1] is T1, CD27-mFc (Kangdai) (human, UniProt P26842 21-192, limits assumed).
T1 construct: Bought reagent; also called antigen CD27-mFc; solid-phase human CD27; not shown: mouse Fc (mFc)
T1 sequence (looked up): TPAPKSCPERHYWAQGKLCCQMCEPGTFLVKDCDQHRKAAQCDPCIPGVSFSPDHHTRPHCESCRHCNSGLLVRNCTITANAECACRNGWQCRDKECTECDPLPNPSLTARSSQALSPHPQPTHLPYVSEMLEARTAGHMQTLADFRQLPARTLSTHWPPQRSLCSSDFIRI
The experiment is described as follows: competition ELISA: CD70 coated, CD27-mFc plus antibody dilutions; competitor CD70. On the technique in general: An ELISA detects its analyte on a solid surface through an enzyme-linked reagent.

The target in experiment [2] is T2, antigen CD27 (soluble, as used in the BLI and SPR experiments) (UniProt P26842 21-192, limits assumed).
T2 sequence (looked up): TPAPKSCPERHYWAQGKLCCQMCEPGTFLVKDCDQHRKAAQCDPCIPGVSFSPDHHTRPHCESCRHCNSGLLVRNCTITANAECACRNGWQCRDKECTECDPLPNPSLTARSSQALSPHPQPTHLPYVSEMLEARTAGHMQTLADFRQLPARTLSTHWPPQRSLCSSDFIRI
Kind of experiment: BLI, antibody captured on AHC probe, CD27 in solution. (Biolayer interferometry detects binding as a change in optical thickness at a sensor tip.)

Experiment [3] has as its target T2, antigen CD27 (soluble, as used in the …). Kind of experiment: SPR, Biacore T200, CM5 chip. For orientation: In SPR one partner is held on a chip, and binding of the other changes the refractive index at the surface.
Experiment [4] has as its target T1, CD27-mFc (Kangdai). Kind of experiment: ELISA on coated CD27-mFc.
Experiment [5] deals with T1, CD27-mFc (Kangdai). The experiment is described as follows: competition ELISA: CD70 coated, CD27-mFc 4.3 µg/mL plus antibody dilutions; competitor CD70.
Experiment [6] deals with T3, human CD27 (transmembrane protein) on the cell membrane (human, UniProt P26842 20-260).
T3 construct: whole, on cells; One molecule is used for CD27 on CHO-CD27 cells, on human PBMC T and B cells and on Jurkat reporter cells; also called CHO-CD27
T3 sequence (looked up): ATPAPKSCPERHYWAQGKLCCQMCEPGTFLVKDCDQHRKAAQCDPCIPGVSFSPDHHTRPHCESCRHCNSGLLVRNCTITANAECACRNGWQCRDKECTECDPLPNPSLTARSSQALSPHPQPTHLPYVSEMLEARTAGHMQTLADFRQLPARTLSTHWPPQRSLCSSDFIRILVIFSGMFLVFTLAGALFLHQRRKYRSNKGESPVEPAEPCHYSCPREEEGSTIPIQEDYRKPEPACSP
Kind of experiment: flow cytometry on CHO cells expressing human CD27.

In experiment [7] the target is T1, CD27-mFc (Kangdai). Kind of experiment: ELISA on coated CD27-mFc. This is another data set of the same source.

Where “and” joins values, the source holds several entries; their conditions need not be identical. Identical values can stand only once. Like-named read-outs stand apart in the source and are kept apart here.

B1: 13B3-hFc human-mouse chimeric CD27 monoclonal antibody (antibody, V domains shown)
VH: QVQLQQSGPEQVKPGASVKISCKTSGYAFSQSWMNWVKQRPGQGLEWIGRIYPGDGDTNYNGIFKGKATLTADKSSSTAYMQLSSLTSLDSAVYFCASMIRTTYVMDHWGQGTSVTVTS
VL: DIVLTQSPATLSVTPGDSVSLSCRASQSVSNSLHWYQQKSHESPRLLIMYTSQSISGIPSRFSGSGSGTDFTLSINSVETEDFGMYFCQQSNSWPLTFGAGTKLELK
notes: Mouse 13B3 variable regions on human constant regions (expression vectors P378 and P379, made in 293F cells)
Broadly, the IC50 is the concentration at which inhibition is half-maximal. The term Kd denotes the free concentration of one partner at which half of the binding sites on the other are occupied at equilibrium, for simple one-to-one binding. In general, koff refers to the first-order rate constant of dissociation. Higher therefore signals fast dissociation. What is called kon is a measure of how fast the partners come together. A high value points to faster complex formation. Usually EC50 stands for the concentration needed to bring the measured effect to its halfway point. A lower EC50 goes with higher potency in that assay. Turning to B1, the concentration for half-maximal inhibition (IC50) in experiment [1] was 2.06 µg/mL and 13.8 nM; in experiment [5], 1.47 µg/mL. Besides, the figures for the equilibrium dissociation constant (Kd) in experiment [2] and in experiment [3] were 1.23 nM and 0.781 nM, respectively. The koff in experiment [2] came out at 0.000222 s⁻¹; in experiment [3] it was 0.000954 s⁻¹. Further, the on-rate constant (kon) in experiment [2] came to 181000 M⁻¹ s⁻¹; in experiment [3] it was 1.22e+06 M⁻¹ s⁻¹. Also, the concentration for a half-maximal effect (EC50) was 0.0503 µg/mL and 0.337 nM in experiment [4]; 2.49 µg/mL in experiment [6]; 0.0344 µg/mL in experiment [7].
